Tests used:
[1] = substrate: C=C(C)C(=O)SCCNC(=O)CCNC(=O)[C@H](O)C(C)(C)COP(=O)(O)OP(=O)(O)OC[C@H]1O[C@@H](n2cnc3c(N)ncnc32)[C@H](O)[C@@H]1OP(=O)(O)O; test: Kinetic characterisation of purified carboxy-terminal hexahistidine tagged 4HBT (thioester hydrolysis, DTNB); assay type: biochemical; conditions: other: substrate of purified CtHis-4HBT (0.075 mg/ml for methacrylyl-CoA, 1 mg/ml for isobutyryl-CoA), DTNB 0.5 mM, Lineweaver-Burke plot; 18.0 °C
Procedure: (§1) Pure carboxy-terminal His-tagged 4HBT enzyme was then prepared by first growing cultures of E. coli BL21 (DE3) pLysS pET20b(+)::CtHis-4HBT and inducing expression in the exact same manner as was performed for E. coli BL21 (DE3) pLysS pET20b(+)::4HBT. […] Cells were harvested by splitting the cell culture into three centrifuge tubes and centrifuging at 5000 g for 20 min at 4° C. Cell pellets were not washed though, and were instead directly stored at −80° C. A cell free extract of carboxy-terminal hexahistidine tagged 4HBT was prepared by re-suspending one of the E. coli BL21 (DE3) pLysS pET20b(+)::CtHis-4HBT cell pellets in binding buffer (6 ml) for a Nickel-sepharose FPLC column. Binding buffer consisted of NaH2PO4 (10 mM), Na2HPO4 (10 mM), NaCl (500 mM), imidazole (30 mM) and was adjusted to pH 7.4 with HCl. Benzonase® nuclease (0.6 μl) was added to the re-suspended cells before they were lysed in the Constant Systems One Shot cell disrupter. The cell lysate was then clarified by centrifugation at 18,000 g for 15 min at 4° C., followed by centrifugation of the supernatant at 57,750 g for 60 min at 4° C. This supernatant was then loaded onto a GE Healthcare HisTrap™ FF Crude column (1 ml) that was equilibrated with binding buffer. […] Protein elution was monitored at 280 nm and fractions were checked for the presence and purity of carboxy-terminal His-tagged 4HBT by SDS-PAGE. […] The latter dilution in potassium phosphate assay buffer and re-concentration was performed once more and the concentration of CtHIS-4HBT protein was determined by UV280 absorbance in a NanoDrop ND1000 spectrophotometer, using a molar extinction coefficient of 20970M^−1·cm^−1 and a molecular weight of 17516.5 mg·mmol^−1 for the carboxy-terminal His-tagged 4HBT enzyme. The values for the molar extinction coefficient and molecular weight were determined using the Expasy ProtParam tool, using the amino acid translation of the gene sequence encoding the carboxy-terminal his tagged 4HBT enzyme (SEQ. ID 5) in the pET20b(+)::CtHis-4HBT plasmid. […]
(§2) Methacrylyl-CoA hydrolysis reactions (200 μl) were performed in Nunc 96 well plates using purified CtHis-4HBT protein (0.075 mg·ml^−1) and DTNB (0.5 mM) to monitor the reaction. Initial rates were determined for methacrylyl-CoA starting concentrations of 0.375 mM, 0.3 mM, 0.225 mM, 0.15 mM and 0.075 mM. […]
(§3) Isobutyryl-CoA hydrolysis reactions (200 μl) were also performed in Nunc 96 well plates, using purified CtHIS-4HBT protein (1 mg·ml^−1) and DTNB (0.5 mM) to monitor the reaction. Initial rates were determined for isobutyryl-CoA starting concentrations of 0.5 mM, 0.4 mM, 0.3 mM, 0.2 mM and 0.1 mM. […]

[2] = substrate: CC(C)C(=O)SCCNC(=O)CCNC(=O)[C@H](O)C(C)(C)COP(=O)(O)OP(=O)(O)OC[C@H]1O[C@@H](n2cnc3c(N)ncnc32)[C@H](O)[C@@H]1OP(=O)(O)O; test: as above; assay type: biochemical; conditions: other: substrate of purified CtHis-4HBT (0.075 mg/ml for methacrylyl-CoA, 1 mg/ml for isobutyryl-CoA), DTNB 0.5 mM, Lineweaver-Burke plot; 18.0 °C
Procedure: as §1, §2, §3

B1: 4-hydroxybenzoyl-CoA thioesterase (4HBT) (Arthrobacter sp.) (protein)
chain: MHRTSNGSHATGGNLPDVASHYPVAYEQTLDGTVGFVIDEMTPERATASVEVTDTLRQRWGLVHGGAYCALAEMLATEATVAVVHEKGMMAVGQSNHTSFFRPVKEGHVRAEAVRIHAGSTTWFWDVSLRDDAGRLCAVSSMSIAVRPRRDGLEHHHHHH
notes: made in house; host or cells: E. coli BL21 (DE3) pLysS pET20b(+)::CtHis-4HBT
B1 gave a Km [1] of 1600 µM, a Vmax [1] of 470 nmols·mg^−1·min^−1 and a Km [2] of 3000 µM. The Vmax [2] was 16.7 nmols·mg^−1·min^−1.
